Results: patent US20250296959A1, “B7-H3 TARGETING PEPTIDES AND CONSTRUCTS THEREOF” (Mariana Oncology Inc., priority 2024, published 2025)
One block for each molecule: values may come before it. Starred links: 1 amine or outer side, 2 acyl side, 3 side chain; linkers in the order of their positions; H or OH if unused. Positions of bridges follow the written chain, without caps; N, C: chain ends. Non-standard residues stand in square brackets, D forms with d. Residues, ends and D or L forms follow the SMILES beside them. Groups on a side chain read outwards from the residue. Primed or numbered codes have the meaning given here. *: point of attachment. Ala(piperidin-4-yl) = O=C([C@H](CC1CCN([*:3])CC1)N[*:1])[*:2]; DOTA = O=C(O)CN1CCN(CC(=O)O)CCN(CC(=O)*)CCN(CC(=O)O)CC1; PipAla = piperidinyl-alanine residue (as named); Phe(4-COOH) = N[C@@H](Cc1ccc(C(=O)O)cc1)C(=O)O; Trp(5-F) = N[C@@H](Cc1c[nH]c2ccc(F)cc12)C(=O)O; X1 = C[C@@H](c1ccccc1)[C@H](N[*:1])C(=O)[*:2]; PEG4′ = 4x 3-(2-aminoethoxy)propanoic acid; 1Nal = N[C@@H](Cc1cccc2ccccc12)C(=O)O; Ala(4-THP) = N[C@@H](CC1CCOCC1)C(=O)O; Lys(Me2) = CN(C)CCCC[C@H](N)C(=O)O; Val(3-OH) = CC(C)(O)[C@H](N)C(=O)O; hCha = N[C@@H](CCC1CCCCC1)C(=O)O; PEG4 = NCCOCCOCCOCCOCCC(=O)O; Tle = CC(C)(C)[C@H](N)C(=O)O; hLeu = CC(C)CC[C@H](N)C(=O)O; Nle = CCCC[C@H](N)C(=O)O

How the values were obtained:
human 4lg B7-H3 = target: T1, human 4lg B7-H3 (Homo sapiens, UniProt Q5ZPR3); experiment: Affinity determination by surface plasmon resonance (SPR) to 4Ig B7-H3; conditions: SPR KD—37° C., 4Ig B7-H3; 37° C. flow cell temperature
T1 sequence (Q5ZPR3 29-534): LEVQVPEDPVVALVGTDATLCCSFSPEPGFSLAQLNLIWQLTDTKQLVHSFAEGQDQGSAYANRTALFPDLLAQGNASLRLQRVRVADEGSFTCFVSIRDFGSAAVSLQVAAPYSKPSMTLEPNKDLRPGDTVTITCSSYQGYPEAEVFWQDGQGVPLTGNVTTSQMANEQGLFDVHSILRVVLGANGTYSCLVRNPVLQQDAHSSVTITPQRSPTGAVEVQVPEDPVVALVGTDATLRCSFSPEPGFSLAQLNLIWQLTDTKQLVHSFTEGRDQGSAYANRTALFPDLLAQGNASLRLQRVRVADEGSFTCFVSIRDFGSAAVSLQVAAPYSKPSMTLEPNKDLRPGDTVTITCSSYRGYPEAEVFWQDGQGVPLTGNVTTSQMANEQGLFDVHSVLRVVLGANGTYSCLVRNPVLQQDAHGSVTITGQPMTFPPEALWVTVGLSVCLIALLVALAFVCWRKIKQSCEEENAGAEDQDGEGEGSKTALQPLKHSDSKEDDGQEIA

2Ig B7-H3 = target: T2, 2Ig B7-H3 (Homo sapiens, UniProt Q5ZPR3); experiment: SPR binding affinity to 2Ig B7-H3; conditions: 37° C.; read-out: 2Ig B7-H3_KD (nM) at 37° C.
T2 sequence (Q5ZPR3 29-316 isoform Q5ZPR3-2 limits assumed): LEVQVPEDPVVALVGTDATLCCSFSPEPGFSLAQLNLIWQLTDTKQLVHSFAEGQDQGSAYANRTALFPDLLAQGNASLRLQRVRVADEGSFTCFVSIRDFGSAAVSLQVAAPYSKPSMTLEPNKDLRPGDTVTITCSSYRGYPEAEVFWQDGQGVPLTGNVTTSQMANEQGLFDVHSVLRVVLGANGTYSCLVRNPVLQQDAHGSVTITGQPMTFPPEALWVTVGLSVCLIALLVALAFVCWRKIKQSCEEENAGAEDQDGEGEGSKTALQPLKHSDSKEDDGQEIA

[1] = target: T3, Biotinylated human 4Ig B7-H3 (human, UniProt Q5ZPR3 29-461, limits assumed, biotinylated (site not stated)); experiment: SPR 37C; C = 10<KD<=100 nM
T3 construct: Protein captured on the SA chip for SPR; also called 4lg-B7-H3; B7-H3 isoform 4Ig
T3 sequence: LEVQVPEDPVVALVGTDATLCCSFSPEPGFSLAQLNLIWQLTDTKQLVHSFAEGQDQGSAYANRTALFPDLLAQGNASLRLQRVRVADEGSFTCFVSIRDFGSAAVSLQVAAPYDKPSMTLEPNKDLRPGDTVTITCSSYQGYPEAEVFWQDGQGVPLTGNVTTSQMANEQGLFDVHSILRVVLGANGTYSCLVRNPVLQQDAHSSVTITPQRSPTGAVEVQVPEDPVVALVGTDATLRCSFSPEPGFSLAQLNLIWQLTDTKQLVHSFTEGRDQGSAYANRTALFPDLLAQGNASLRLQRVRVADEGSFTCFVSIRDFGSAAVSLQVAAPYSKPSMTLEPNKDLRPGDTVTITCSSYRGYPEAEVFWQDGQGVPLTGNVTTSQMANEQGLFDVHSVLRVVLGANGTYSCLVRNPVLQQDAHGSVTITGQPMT

[2] = target: Biotinylated human 4Ig B7-H3 (human) (UniProt Q5ZPR3); experiment: SPR 37C; A = KD<=1.0 nM

B1: Cpd 29 (peptide)
peptide: Ac-[Nle]YCVGKYDVYCWFE[dK](DOTA)-NH2
modifications: disulfide 3-11
SMILES: CCCC[C@H](NC(C)=O)C(=O)N[C@@H](Cc1ccc(O)cc1)C(=O)N[C@H]1CSSC[C@@H](C(=O)N[C@@H](Cc2c[nH]c3ccccc23)C(=O)N[C@@H](Cc2ccccc2)C(=O)N[C@@H](CCC(=O)O)C(=O)N[C@H](CCCCNC(=O)CN2CCN(CC(=O)O)CCN(CC(=O)O)CCN(CC(=O)O)CC2)C(N)=O)NC(=O)[C@H](Cc2ccc(O)cc2)NC(=O)[C@H](C(C)C)NC(=O)[C@H](CC(=O)O)NC(=O)[C@H](Cc2ccc(O)cc2)NC(=O)[C@H](CCCCN)NC(=O)CNC(=O)[C@H](C(C)C)NC1=O
KD [1]: 10 to 100 nM

B4: Cpd 33 (peptide)
peptide: Ac-[Nle]YCVGKYDVYCWFT-OH
modifications: disulfide 3-11
KD [1]: 10 to 100 nM

Second part, the molecule after the results:

Kd (human 4lg B7-H3): < 1 nM
Kd (2Ig B7-H3): 260 nM
Molecule: CC(=O)N[C@@H](CCC(C)C)C(=O)N[C@@H](Cc1ccc(O)cc1)C(=O)N[C@H]1CSSC[C@@H](C(=O)N[C@@H](Cc2c[nH]c3ccc(F)cc23)C(=O)N[C@H](C(=O)N[C@H](C(=O)N[C@H](C)C(=O)O)C(C)(C)O)[C@@H](C)c2ccccc2)NC(=O)[C@H](Cc2ccc(O)cc2)NC(=O)[C@H](C(C)C)NC(=O)[C@H](CC(=O)O)NC(=O)[C@H](CC2CCN(C(=O)CCOCCOCCOCCOCCNC(=O)CN3CCN(CC(=O)O)CCN(CC(=O)O)CCN(CC(=O)O)CC3)CC2)NC(=O)[C@H](CCCCN(C)C)NC(=O)CNC(=O)[C@H](C(C)(C)C)NC1=O [compound 521, Ac-hLeu-Y-C-Tbg-G-Lys(Me)2-Pip(PEG4-DOTA)Ala-D-V-Y-C-5FW-[(2S, 3S)beta-Me-Phe]-hydroxyVal-dAla-COOH] (Ac-[hLeu]YC[Tle]G[Lys(Me2)][Ala(piperidin-4-yl)]([PEG4-DOTA])DVYC[Trp(5-F)][X1][Val(3-OH)][dA]-OH; disulfide 3-11)

KD [2]: < 1 nM
B2: Cpd 485 (peptide)
peptide: Ac-[hCha]YC[Tle]G[PipAla]([PEG4′-DOTA])[Ala(4-THP)]DVYC[Trp(5-F)]F[Val(3-OH)][dA]-OH
modifications: disulfide 3-11 (inferred)

KD [2]: < 1 nM
B3: Cpd 314 (peptide)
peptide: Ac-[hLeu]YC[Tle]G[Ala(piperidin-4-yl)][Phe(4-COOH)]DVYC[1Nal]FP[dK](DOTA)-NH2
modifications: disulfide 3-11 (inferred)
